Tested on: T1, PKC inhibitor peptide 19-31 (Arg-Phe-Ala-Arg-Lys-Gly-Ala-Leu-Arg-Gin-Lys-Asn-Val)
T1 sequence: RFARKGALRQKNV

For Protein kinase C, the “insulin-stimulated DNA synthesis (BrDU incorporation) under high glucose after microinjection of the peptide” value was “partially reversed inhibition of DNA synthesis”.
